Test results as given in patent US20200316166A1, “Drug and Method for Treating Liver Diseases Related to Hepatitis B Viruses in Full-Dose Condition” (Shanghai Hep Pharmaceutical Co., Ltd., priority 2017, published 2020).

How the values were obtained:
[1] = molecular target: sodium taurocholate cotransporting polypeptide (NTCP) expressed on transfected 293 cells (NTCP-293) (human) (UniProt Q14973); assay: cell-based or functional assay
NTCP = molecular target: T1, NTCP (Homo sapiens, UniProt Q14973); assay: Binding of FITC-labeled polypeptide to NTCP-293 cells; conditions: FITC label; for binding to NTCP-293 cells: 293 cells transfected with NTCP; for binding to 293 cells not transfected with NTCP (BLANK-293): control cells
T1 construct: expressed in transfected cells; host or cells: 293 (HEK293) cells
T1 sequence (Q14973 1-349): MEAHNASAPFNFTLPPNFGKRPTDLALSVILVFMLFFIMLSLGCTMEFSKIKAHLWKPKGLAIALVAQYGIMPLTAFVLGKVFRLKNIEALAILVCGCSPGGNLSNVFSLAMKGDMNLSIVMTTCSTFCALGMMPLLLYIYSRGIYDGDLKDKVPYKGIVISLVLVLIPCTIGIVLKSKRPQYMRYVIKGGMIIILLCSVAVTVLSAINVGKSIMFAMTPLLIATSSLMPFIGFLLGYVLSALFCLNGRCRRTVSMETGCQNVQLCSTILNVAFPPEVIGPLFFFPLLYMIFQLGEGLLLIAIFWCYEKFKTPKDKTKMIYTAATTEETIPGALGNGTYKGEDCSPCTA
Description: NTCP-293 cell line was formed by transfecting non-hepatocyte-derived 293 cells with NTCP.

[2] = listed as hepalatide labeled with FIFC

Sequence of hepalatide (P31868 13-59): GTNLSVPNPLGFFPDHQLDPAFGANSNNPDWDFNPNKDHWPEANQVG

| Substance | IC50 of inhibition of NTCP-293 uptake of 3H-labeled bile acid (3H-TA) [1] [µg/mL] | binding to NTCP-293 cells (NTCP) | binding to NTCP-293 cells (NTCP; [2]) | binding to 293 cells not transfected with NTCP (BLANK-293) (NTCP) | binding to 293 cells not transfected with NTCP (BLANK-293) (NTCP; [2]) |
| --- | --- | --- | --- | --- | --- |
| hepalatide (peptide) | 0.839 | – | – | – | – |
| FITC-hepalatide: hepalatide (Cmyr-47) fluorescently labeled by FITC at amino acid K at position 37 | – | bound to NTCP-293 cells | bind to NTCP expressing HEK293 cells | did not bind to 293 cells | do not bind to control HEK293 cells |
